Test results reported in patent US10870872B2, “Enzymatic nucleic acid synthesis” (President and Fellows of Harvard College, priority 2016, dated 2020).

Columns and labels:
TdT [1] = target: T1, TdT (Homo sapiens, UniProt P04053); conditions: Ashley et al., Virology 77, 367-375 (1977); cited from earlier work
TdT [2] = target: T1, TdT; assay: pH regulation of TdT enzyme activity (extension reactions, TBE-Urea gel); assay type: biochemical
Procedure: The objective of these experiments is to determine the range of pH in which TdT is active.
1. A buffer of 50 mM Tris (base) and 50 mM Boric acid was prepared and its pH (initially at ˜8.5) was adjusted to 6.05, 6.9, 7.93, 8.96, 10.02, and 11.07 using acetic acid and sodium hydroxide. These buffers serve as 2× buffers in the experiments.
2. Extension reactions were assembled as follows:
3. Each reaction was incubated for 15 minutes and then loaded on a TBE-Urea gel with an unextended initiator for comparison.
In the following experiment, TdT was incubated at a pH for 15 minutes without the nucleotide or the initiator, it was then combined with the nucleotide and the initiator in such a way that the final pH of the mixture during polymerization would be different from that of the initial 15 min incubation.
1. A buffer of 50 mM Tris (base) and 50 mM Boric acid was prepared and its pH (initially at ˜8.5) was adjusted to 6.05, 6.9, 7.93, 8.96, 10.02, and 11.07 using acetic acid and sodium hydroxide. These buffers serve as 2× buffers in the experiment.
2. Extension reactions were assembled in two parts:
Eight different extension reactions were assembled with following pH used for the buffer in part 1 and part 2:
3. Both parts of each reaction were incubated for 15 minutes, they were then mixed to form the 20 μl total, then loaded on a TBE-Urea gel: […]

B1: TdT: template-independent DNA polymerase which extends single-stranded oligonucleotides (protein, UniProt P04053 1-509, looked up)
DNA nucleotidylexotransferase: MDPPRASHLSPRKKRPRQTGALMASSPQDIKFQDLVVFILEKKMGTTRRAFLMELARRKGFRVENELSDSVTHIVAENNSGSDVLEWLQAQKVQVSSQPELLDVSWLIECIRAGKPVEMTGKHQLVVRRDYSDSTNPGPPKTPPIAVQKISQYACQRRTTLNNCNQIFTDAFDILAENCEFRENEDSCVTFMRAASVLKSLPFTIISMKDTEGIPCLGSKVKGIIEEIIEDGESSEVKAVLNDERYQSFKLFTSVFGVGLKTSEKWFRMGFRTLSKVRSDKSLKFTRMQKAGFLYYEDLVSCVTRAEAEAVSVLVKEAVWAFLPDAFVTMTGGFRRGKKMGHDVDFLITSPGSTEDEEQLLQKVMNLWEKKGLLLYYDLVESTFEKLRLPSRKVDALDHFQKCFLIFKLPRQRVDSDQSSWQEGKTWKAIRVDLVLCPYERRAFALLGWTGSRQFERDLRRYATHERKMILDNHALYDKTKRIFLKAESEEEIFAHLGLDYIEPWERNA
In the case of B1, the “optimal pH” value (TdT [1]) is given as 6.85, the TdT enzymatic activity (TdT [2]; pH ranges above 6 and below 11) is given as “highly active” and the TdT enzymatic activity (TdT [2]; pH ranges below 6 and above 11) is given as “substantially inactivated”.
